From US20140086916A1 (Merck Sharp & Dohme, published 2014) come the findings set out here.

Several values for one entry are separate records, joined by “and”; a condition that tells them apart may be missing. Identical values can stand only once.

The target in one experiment is T1, wild-type human PCSK9 (human, UniProt Q8NBP7 31-692, limits assumed).
T1 construct: also called PCSK9 antigen
In words: SPR (Biacore T100), antibody captured by anti-human Fc, PCSK9 as analyte, 1:1 model. How it is done:
The CM5 chip was immobilized on all flowcells with mouse anti-human IgG (Fc specific) according to the Biacore Human Antibody Capture Kit (Cat# BR-1008-39) to ˜7000RU. Anti-PCSK9 antibodies were captured on the chip to ˜500RU followed by analyte injections of wild-type human PCSK9 from 64.1 nM to 2.0 nM. Each flowcell was regenerated between each analyte injection with 3M MgCl for 40 seconds at 10 uL/min. Data was analyzed with Biacore T100 Evaluation Software using the 1:1 binding model using at least 5 point concentration range sensogram.
In general terms: Surface plasmon resonance follows binding to a sensor surface in real time, without labels.

The target of experiment [1] is T2, FcγRIIA H (UniProt P12318 34-217, limits assumed).
T2 construct: also called FcgRIIA H
T2 sequence (looked up): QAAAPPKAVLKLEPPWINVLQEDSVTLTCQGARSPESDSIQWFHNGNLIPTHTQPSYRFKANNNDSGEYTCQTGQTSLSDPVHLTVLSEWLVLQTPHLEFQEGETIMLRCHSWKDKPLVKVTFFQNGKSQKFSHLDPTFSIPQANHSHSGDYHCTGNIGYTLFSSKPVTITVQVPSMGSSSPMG
The experiment in a line: fold change of the Table 12 affinities (reference row). How it is done: (§1) Fcγ receptor binding assays were carried out as described (Shields, et al. (2001) J. Biol. Chem. 276:6591-6604) with minor modifications. High protein binding 96-well plates (Corning Costar) were coated with 100 μL per well of Fcγ receptor solutions in PBS at the following concentrations: 1 μg/mL for both FcγRI (R&D Systems) and FcγRIIa (Pichia pastoris produced), 2 μg/mL for FcγRIIb (P. pastoris produced), 0.8 μg/mL for FcγRIIIa-F158, and 0.4 μg/mL for FcγRIIIa-V158 (both P. pastoris produced). All Pichia pastoris produced receptors were expressed and purified as described (Li, et al. (2006) Nature Biotechnology 24:210-215). Monomeric antibody samples added to the FcγRI plate were serially diluted in assay diluent (1×PBS, 1% BSA, and 0.05% Tween20) and 100 μL, per well was added to the plate. Antibody samples prepared for the remaining receptors require a one hour dimerization step with half molar ratio of goat anti-human IgG F(ab′)2 F(ab′)2 that is conjugated with alkaline phosphatase for detection. These dimerized F(ab′)2/antibody complexes were also serially diluted and 100 μL per well were added to the remaining receptor plates and all plates were incubated for one hour at room temperature. FcγRI bound sample antibody was detected using the same goat anti-human IgG F(ab′)2 alkaline phosphatase conjugated F(ab′)2. Sample antibody binding was quantified by measuring excitation at 340 nm and emission at 465 nm after 18 hour incubation with SuperPhos, 4-MUP Fluorescence AP Substrate Detection System (Virolabs).

Experiment [2] concerns the target T3, FcγRIIIa-F158 (Pichia pastoris produced) (UniProt P08637 17-208, limits assumed).
T3 construct: also called FcγRIIIA LF; FcgRIIIA LF
Described as above. The protocol:
as §1

Experiment [3] addresses T4, FcγRIIIa-V158 (Pichia pastoris produced) (UniProt P08637 17-208, limits assumed).
T4 construct: also called FcγRIIIA LV; FcgRIIIA LV
The description is as above. The protocol:
as §1

For experiment [4], the target named is T2, FcγRIIA H. The experiment in a line: FcγR affinity assay 'as described in Example 7', n = 3; printed as Affinity (nM) ± STDEV. How it is done:
as §1

Experiment [5] concerns the target T5, FcγRIIb (Pichia pastoris produced) (UniProt P31994 43-217, limits assumed).
T5 construct: also called FcgRIIB; CD32B
T5 sequence (looked up): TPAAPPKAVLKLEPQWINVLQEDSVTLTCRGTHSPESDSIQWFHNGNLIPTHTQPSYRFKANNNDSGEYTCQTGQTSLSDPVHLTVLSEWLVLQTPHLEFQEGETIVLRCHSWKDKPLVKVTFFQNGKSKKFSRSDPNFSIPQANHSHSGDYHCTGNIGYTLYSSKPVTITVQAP
Described as above. How it is done: as §1

The target in experiment [6] is T3, FcγRIIIa-F158 (Pichia pastoris produced). In words: ELISA-type plate assay, FcγR coated, antibody dimerized with AP-conjugated goat anti-human IgG F(ab')2, RFU readout. The protocol: as §1
(In an ELISA, binding on a coated surface is turned into a signal by an enzyme label.)

Experiment [7] concerns the target T5, FcγRIIb (Pichia pastoris produced). The description is as above. The protocol: as §1
In experiment [8] the target is T3, FcγRIIIa-F158 (Pichia pastoris produced). The experiment in a line: ELISA on plate-coated receptor; antibody dimerized with anti-human IgG F(ab')2-AP; ELISA IC50, YGLY23258 (dimer), Table 7 experiment. The protocol: as §1, with “These dimerized F(ab′)2/antibody complexes were also serially diluted and 100 μL per well were added to the remaining receptor plates and all plates were incubated for one hour at room temperature.” left out

Experiment [9] deals with T4, FcγRIIIa-V158 (Pichia pastoris produced). The description is as above. The protocol:
as §1, with “These dimerized F(ab′)2/antibody complexes were also serially diluted and 100 μL per well were added to the remaining receptor plates and all plates were incubated for one hour at room temperature.” left out

Experiment [10] has as its target T3, FcγRIIIa-F158 (Pichia pastoris produced). The experiment in a line: ELISA on plate-coated receptor; antibody dimerized with anti-human IgG F(ab')2-AP; ELISA IC50, YGLY23258 (dimer), Table 3 experiment. The protocol: as §1, with “These dimerized F(ab′)2/antibody complexes were also serially diluted and 100 μL per well were added to the remaining receptor plates and all plates were incubated for one hour at room temperature.” left out

In experiment [11] the target is T4, FcγRIIIa-V158 (Pichia pastoris produced). Described as above. The protocol: as §1, with “These dimerized F(ab′)2/antibody complexes were also serially diluted and 100 μL per well were added to the remaining receptor plates and all plates were incubated for one hour at room temperature.” left out
Experiment [12] deals with T3, FcγRIIIa-F158 (Pichia pastoris produced). In words: ELISA on plate-coated receptor; antibody dimerized with anti-human IgG F(ab')2-AP; ELISA IC50, YGLY23258 (dimer), Table 5 experiment. How it is done:
as §1, with “These dimerized F(ab′)2/antibody complexes were also serially diluted and 100 μL per well were added to the remaining receptor plates and all plates were incubated for one hour at room temperature.” left out

The target of experiment [13] is T4, FcγRIIIa-V158 (Pichia pastoris produced). The experiment is described as above. How it is done: as §1, with “These dimerized F(ab′)2/antibody complexes were also serially diluted and 100 μL per well were added to the remaining receptor plates and all plates were incubated for one hour at room temperature.” left out

The term Kd denotes a measure of binding affinity in units of concentration. For orientation: koff means a measure of how fast the partners let go of each other. The low end stands for a long-lived complex, the high end for a short-lived complex. One may read the kon as the rate constant with which the complex forms. Read a low kon as slow association. In general, EC50 (read off the curve) refers to the concentration at which the effect is half-maximal. For orientation: IC50 means the concentration that inhibits the measured activity by half.

T4 sequence (P08637 17-208 F176V limits assumed): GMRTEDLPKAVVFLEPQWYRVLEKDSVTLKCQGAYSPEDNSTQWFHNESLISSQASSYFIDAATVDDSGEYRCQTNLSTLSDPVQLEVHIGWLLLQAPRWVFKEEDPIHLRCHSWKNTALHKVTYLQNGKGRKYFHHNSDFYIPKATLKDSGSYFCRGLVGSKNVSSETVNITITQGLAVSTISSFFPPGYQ
T3 sequence (P08637 17-208 limits assumed): as the sequence (P08637 17-208 F176V limits assumed) above, with V160F counted along it

B1: 1F11 wildtype (parent) humanized anti-PCSK9 monoclonal IgG1 antibody (antibody)
heavy: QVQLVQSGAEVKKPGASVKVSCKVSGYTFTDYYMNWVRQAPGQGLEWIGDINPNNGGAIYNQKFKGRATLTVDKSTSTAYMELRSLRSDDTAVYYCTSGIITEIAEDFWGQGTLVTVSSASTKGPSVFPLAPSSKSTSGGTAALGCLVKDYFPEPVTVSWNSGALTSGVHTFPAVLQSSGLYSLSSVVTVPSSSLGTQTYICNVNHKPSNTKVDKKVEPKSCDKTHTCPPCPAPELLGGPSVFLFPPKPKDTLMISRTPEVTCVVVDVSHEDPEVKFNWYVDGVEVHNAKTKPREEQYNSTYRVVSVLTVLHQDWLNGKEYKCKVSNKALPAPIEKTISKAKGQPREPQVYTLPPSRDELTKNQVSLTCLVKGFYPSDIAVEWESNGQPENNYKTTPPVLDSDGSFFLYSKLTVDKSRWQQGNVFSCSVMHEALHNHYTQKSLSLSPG
light: DIQMTQSPSSLSASVGDRVTITCKASQNVGTNVVWYQQKPGKAPKALIHSASYRYSGVPSRFSGSGSGTDFTLTISSLQPEDFATYYCQQYKTYPYTFGQGTKVEIKRTVAAPSVFIFPPSDEQLKSGTASVVCLLNNFYPREAKVQWKVDNALQSGNSQESVTEQDSKDSTYSLSSTLTLSKADYEKHKVYACEVTHQGLSSPVTKSFNRGEC
notes: Produced in glycoengineered Pichia pastoris GFI5.0 (strain YGLY21351); also called 1F11 IgG1 GS5.0; YGLY21351
For the molecule B1, the Kd was 3.29 nM and 2.3 nM with wild-type human PCSK9; 892 nM in the experiment with FcγRIIA H [4]; 545 nM in [5]. Also, the off-rate constant (koff) with wild-type human PCSK9 is 0.000499 s⁻¹ and 0.000407 s⁻¹. For the same molecule, the on-rate (kon) with wild-type human PCSK9 is 152000 M⁻¹ s⁻¹ and 177000 M⁻¹ s⁻¹. Also, the “fold change in affinity vs 1F11 IgG1 GS5.0” value (with FcγRIIA H [1]; in experiment [2]; in experiment [3]) was 1 fold each time. Further, the half-maximal effective concentration (EC50 (read off the curve)) in experiment [6] was roughly 0.02 µg/mL; in [7] it was roughly 0.2 µg/mL.

B2: 1F11 IgG1 F243A/V264A double mutein anti-PCSK9 antibody (antibody)
heavy: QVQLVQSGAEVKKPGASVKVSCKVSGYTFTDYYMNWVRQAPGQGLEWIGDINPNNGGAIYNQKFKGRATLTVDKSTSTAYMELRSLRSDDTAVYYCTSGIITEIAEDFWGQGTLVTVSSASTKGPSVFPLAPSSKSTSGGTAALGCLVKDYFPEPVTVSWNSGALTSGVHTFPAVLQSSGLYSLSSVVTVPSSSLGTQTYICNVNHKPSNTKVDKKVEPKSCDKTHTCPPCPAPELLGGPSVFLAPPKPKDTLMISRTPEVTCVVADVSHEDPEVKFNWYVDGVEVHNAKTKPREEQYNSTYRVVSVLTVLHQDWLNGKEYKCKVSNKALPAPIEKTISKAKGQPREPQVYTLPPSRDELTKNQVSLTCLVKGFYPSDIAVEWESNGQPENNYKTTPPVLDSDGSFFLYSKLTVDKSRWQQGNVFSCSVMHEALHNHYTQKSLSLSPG
light: DIQMTQSPSSLSASVGDRVTITCKASQNVGTNVVWYQQKPGKAPKALIHSASYRYSGVPSRFSGSGSGTDFTLTISSLQPEDFATYYCQQYKTYPYTFGQGTKVEIKRTVAAPSVFIFPPSDEQLKSGTASVVCLLNNFYPREAKVQWKVDNALQSGNSQESVTEQDSKDSTYSLSSTLTLSKADYEKHKVYACEVTHQGLSSPVTKSFNRGEC
notes: sialylated N-glycans; also called 1F11 DM; YGLY23258
On to B2, for which the IC50 was found to be 1.31 µg/mL in [8]; 0.16 µg/mL in experiment [9]; 0.6 µg/mL in experiment [10]; 0.09 µg/mL in [11]; 0.94 µg/mL in [12]; 0.13 µg/mL in experiment [13].
